Results: patent publication US20250066499A1 (SUNSHINE GUOJIAN PHARMACEUTICAL SHANGHAI, published 2025)

How the values were obtained:
CD73-ND-N187A = biological target: T1, CD73-ND-N187A (human, UniProt P21589 27-317); assay: ELISA, biotinylated antigen on streptavidin plate
T1 construct: Alanine mutant of CD73-ND
T1 sequence: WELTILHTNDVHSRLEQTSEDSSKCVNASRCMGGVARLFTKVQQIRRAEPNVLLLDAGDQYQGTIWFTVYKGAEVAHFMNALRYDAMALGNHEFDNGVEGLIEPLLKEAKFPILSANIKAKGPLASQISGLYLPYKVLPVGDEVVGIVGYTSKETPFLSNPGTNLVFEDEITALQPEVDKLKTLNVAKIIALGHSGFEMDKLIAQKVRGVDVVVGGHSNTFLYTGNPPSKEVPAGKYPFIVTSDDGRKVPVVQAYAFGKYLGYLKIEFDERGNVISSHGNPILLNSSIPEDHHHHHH
Experimental: (§1) The ELISA plates were coated with SA protein diluted to 1.5 μg/mL in coating buffer (50 mM carbonate coating buffer, pH 9.6) and incubated overnight at 4° C. The supernatant was discarded, and the plates were washed three times with PBST. Then, 5% skimmed milk powder prepared with PBS was added for blocking and the plates were incubated for 2 h at 37° C. After washing the plates once with PBST, CD73-biotin protein (prepared by biotinylating CD73-His protein according to the EZ-Link NHS-Biotin Reagent instructions) was diluted to 0.5 μg/mL and added at 100 μL/well for incubation at room temperature for 1 h. The plates were washed three times with PBST, and the prepared murine-derived monoclonal antibodies against human CD73 were serially diluted with 1% BSA buffer prepared with PBST and added to the ELISA plates at 100 μl/well. The plates were incubated at 37° C. for 1 h. After washing the plates three times with PBST, HRP-labeled goat anti-mouse IgG secondary antibody was added and the plates were incubated for 30 min at 37° C. After washing the plates three times with PBST, the residual droplets were patted dry on absorbent paper as much as possible. Then, 100 μl of TMB color developing solution was added to each well, and the plates were incubated in the dark at room temperature for 5 min for color development. Subsequently, 50 μl of 2M H₂SO₄ stop solution was added to each well to terminate the substrate reaction. The OD values were read at 450 nm using a multimode microplate reader to analyze the binding ability of the tested antibodies to the target antigen human CD73-His.
(§2) Referring to the experimental method in Example 3, the affinity of 48A11-HuV33 for various mutant proteins of CD73-ND was determined. The SA protein was diluted to 1 μg/mL for coating the ELISA plates, and the biotinylated CD73 protein (CD73-biotin) was used at a concentration of 0.1 μg/mL.

CD73-ND-his [1] = biological target: T2, CD73-ND-his (human, UniProt P21589 27-317); assay: ELISA, biotinylated antigen on streptavidin plate
T2 construct: Biotinylated and captured on streptavidin in the ELISA
T2 sequence: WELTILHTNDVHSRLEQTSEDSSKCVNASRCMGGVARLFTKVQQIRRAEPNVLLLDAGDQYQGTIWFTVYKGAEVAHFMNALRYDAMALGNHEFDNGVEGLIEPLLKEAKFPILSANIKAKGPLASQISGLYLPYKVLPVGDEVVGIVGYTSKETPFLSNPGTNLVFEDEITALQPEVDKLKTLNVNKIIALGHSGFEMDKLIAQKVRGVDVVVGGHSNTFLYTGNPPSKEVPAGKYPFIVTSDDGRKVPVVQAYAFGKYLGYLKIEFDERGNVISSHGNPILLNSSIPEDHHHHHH
Experimental: as §1, §2

CD73-ND-V186A = biological target: T3, CD73-ND-V186A (human, UniProt P21589 27-317); assay: ELISA, biotinylated antigen on streptavidin plate
T3 construct: Alanine mutant of CD73-ND
T3 sequence: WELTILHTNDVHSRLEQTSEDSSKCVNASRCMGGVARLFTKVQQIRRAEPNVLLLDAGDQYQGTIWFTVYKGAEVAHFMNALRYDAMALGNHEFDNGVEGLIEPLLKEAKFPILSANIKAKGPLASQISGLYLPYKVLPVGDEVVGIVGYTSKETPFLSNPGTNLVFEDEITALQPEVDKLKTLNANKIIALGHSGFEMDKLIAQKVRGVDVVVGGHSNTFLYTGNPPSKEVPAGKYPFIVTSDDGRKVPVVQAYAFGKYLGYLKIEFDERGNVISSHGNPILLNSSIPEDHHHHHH
Experimental: as §1, §2

CD73-ND-P134A = biological target: T4, CD73-ND-P134A (human, UniProt P21589 27-317); assay: ELISA; decline multiple of EC50 against CD73-ND
T4 construct: Alanine mutant of CD73-ND
T4 sequence: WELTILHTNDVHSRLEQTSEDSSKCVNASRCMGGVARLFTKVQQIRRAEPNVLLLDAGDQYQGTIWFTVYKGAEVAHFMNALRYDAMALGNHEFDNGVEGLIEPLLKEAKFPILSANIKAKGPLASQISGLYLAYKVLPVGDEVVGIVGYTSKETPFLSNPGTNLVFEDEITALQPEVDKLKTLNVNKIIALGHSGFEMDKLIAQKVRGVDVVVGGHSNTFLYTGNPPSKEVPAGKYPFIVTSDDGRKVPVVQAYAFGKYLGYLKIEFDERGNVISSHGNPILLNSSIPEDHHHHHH
Experimental: as §1, §2

CD73-ND-his [2] = biological target: T2, CD73-ND-his; assay: ELISA; decline multiple of EC50 against CD73-ND
Experimental: as §1, §2

CD73-ND-L138A = biological target: T5, CD73-ND-L138A (human, UniProt P21589 27-317); assay: ELISA; decline multiple of EC50 against CD73-ND
T5 construct: Alanine mutant of CD73-ND
T5 sequence: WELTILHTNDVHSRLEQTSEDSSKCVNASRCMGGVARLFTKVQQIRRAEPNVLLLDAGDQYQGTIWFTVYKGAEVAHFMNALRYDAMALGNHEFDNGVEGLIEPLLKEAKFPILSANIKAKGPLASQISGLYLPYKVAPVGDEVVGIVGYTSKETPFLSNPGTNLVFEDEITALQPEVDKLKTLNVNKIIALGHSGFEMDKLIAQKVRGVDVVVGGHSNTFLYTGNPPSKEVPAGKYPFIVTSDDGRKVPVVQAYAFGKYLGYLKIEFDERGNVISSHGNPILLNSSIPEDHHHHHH
Experimental: as §1, §2

CD73-ND-V137A = biological target: T6, CD73-ND-V137A (human, UniProt P21589 27-317); assay: ELISA; decline multiple of EC50 against CD73-ND
T6 construct: Alanine mutant of CD73-ND
T6 sequence: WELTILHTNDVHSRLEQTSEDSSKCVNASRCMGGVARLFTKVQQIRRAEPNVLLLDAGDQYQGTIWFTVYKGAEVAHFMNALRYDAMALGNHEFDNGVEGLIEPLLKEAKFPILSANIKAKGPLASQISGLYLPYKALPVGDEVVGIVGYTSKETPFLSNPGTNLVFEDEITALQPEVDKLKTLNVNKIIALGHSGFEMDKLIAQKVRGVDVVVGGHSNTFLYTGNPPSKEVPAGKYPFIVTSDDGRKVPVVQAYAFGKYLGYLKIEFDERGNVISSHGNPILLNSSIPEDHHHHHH
Experimental: as §1, §2

B1: 48A11-HuV33 (antibody, human IgG4, V domains shown)
VH: QVQLVQSGAEVKKPGASVKVSCKASGYTFTSYWMHWVRQAPGQGLEWIGEINPSIGRTNYNEKFKSRVTLTRDTSTSTAYMELSSLRSEDTAVYYCARRVYGTMDYWGQGTLVTVSS
VL: DIQMTQSPSSLSASVGDRVTITCKASQDINSYLSWFQQKPGKSPKLLIYRANIWVDGVPSRFSGSGSGQDYTFTISSLQPEDIATYYCLQYDELYTFGQGTKVEIK
notes: Humanized
For B1, the EC50 (CD73-ND-N187A) was 105 pM, the EC50 (CD73-ND-his [1]) was 91 pM and the EC50 (CD73-ND-V186A) was 160 pM. For the same binder, the “Ratio(EC50)” value (CD73-ND-P134A) was 1.3 fold, the “Ratio(EC50)” value (CD73-ND-his [2]) was 1 fold and the “Ratio(EC50)” value (CD73-ND-L138A) was 1.2 fold. The “Ratio(EC50)” value (CD73-ND-V137A) was 5.9 fold.
